Measurements as given in US20210139548A1 (published 2021).
*1 amine or outer side, *2 acyl side, *3 side chain or, on linkers, in order; H or OH if unused. Side-chain parts run from the residue outwards. The star is where a group is joined. C18 diacid = O=C(O)CCCCCCCCCCCCCCCCC(=O)*; γGlu = O=C(O)[C@H](CCC(=O)[*:2])N[*:1]; Isovaleryl = CC(C)CC(=O)*; AEEA = NCCOCCOCC(=O)O

T1: human neuropeptide Y2 receptor (human, UniProt P49146 1-381)
T1 construct: whole, on cells; also called hNPY2 receptor; hNPY2-R
T1 sequence (looked up): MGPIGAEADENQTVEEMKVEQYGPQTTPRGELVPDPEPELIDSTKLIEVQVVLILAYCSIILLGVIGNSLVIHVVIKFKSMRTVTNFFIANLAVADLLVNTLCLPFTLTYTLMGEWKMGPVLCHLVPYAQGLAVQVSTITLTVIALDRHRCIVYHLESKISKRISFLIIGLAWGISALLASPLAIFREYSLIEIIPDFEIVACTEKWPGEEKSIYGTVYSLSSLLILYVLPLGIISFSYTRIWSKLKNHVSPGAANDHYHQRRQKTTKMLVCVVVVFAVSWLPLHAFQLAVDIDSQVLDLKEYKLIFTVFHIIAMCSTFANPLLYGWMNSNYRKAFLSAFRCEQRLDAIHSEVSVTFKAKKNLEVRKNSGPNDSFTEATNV


Molecular target: T1, human neuropeptide Y2 receptor
Assay: radioligand competition (125I-PYY(1-36)), hNPY2R membranes
In short: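 Commercial human Y2 receptor membranes (0.5 μg protein/well) were incubated with peptide for 2 h at room temperature in 50 mM HEPES, 5 mM MgCl₂, 1 mM CaCl₂, pH 7.4, with 0.2% ovalbumin. Bound radioligand was separated on PEI-soaked GF/C filters and counted by scintillation, and IC₅₀ came from nonlinear sigmoidal regression.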

Binder | Ki
Isovaleryl-APEK([AEEA-AEEA-γGlu-C18 diacid])AEEDASPEEIQRYYVSLRHYYNWLTRQRY-NH2 (SMILES CC[C@H](C)[C@H](NC(=O)[C@H](CCC(=O)O)NC(=O)[C@H](CCC(=O)O)NC(=O)[C@@H]1CCCN1C(=O)[C@H](CO)NC(=O)[C@H](C)NC(=O)[C@H](CC(=O)O)NC(=O)[C@H](CCC(=O)O)NC(=O)[C@H](CCC(=O)O)NC(=O)[C@H](C)NC(=O)[C@H](CCCCNC(=O)COCCOCCNC(=O)COCCOCCNC(=O)CC[C@H](NC(=O)CCCCCCCCCCCCCCCCC(=O)O)C(=O)O)NC(=O)[C@H](CCC(=O)O)NC(=O)[C@@H]1CCCN1C(=O)[C@H](C)NC(=O)CC(C)C)C(=O)N[C@@H](CCC(N)=O)C(=O)N[C@@H](CCCNC(=N)N)C(=O)N[C@@H](Cc1ccc(O)cc1)C(=O)N[C@@H](Cc1ccc(O)cc1)C(=O)N[C@H](C(=O)N[C@@H](CO)C(=O)N[C@@H](CC(C)C)C(=O)N[C@@H](CCCNC(=N)N)C(=O)N[C@@H](Cc1c[nH]cn1)C(=O)N[C@@H](Cc1ccc(O)cc1)C(=O)N[C@@H](Cc1ccc(O)cc1)C(=O)N[C@@H](CC(N)=O)C(=O)N[C@@H](Cc1c[nH]c2ccccc12)C(=O)N[C@@H](CC(C)C)C(=O)N[C@H](C(=O)N[C@@H](CCCNC(=N)N)C(=O)N[C@@H](CCC(N)=O)C(=O)N[C@@H](CCCNC(=N)N)C(=O)N[C@@H](Cc1ccc(O)cc1)C(N)=O)[C@@H](C)O)C(C)C) [Compound 152] | 5.18 nM
Isovaleryl-APEK([AEEA-AEEA-γGlu-C18 diacid])VEEEASPEELQRYYVSLRHYYNWLTRQRY-NH2 (SMILES CC(C)CC(=O)N[C@@H](C)C(=O)N1CCC[C@H]1C(=O)N[C@@H](CCC(=O)O)C(=O)N[C@@H](CCCCNC(=O)COCCOCCNC(=O)COCCOCCNC(=O)CC[C@H](NC(=O)CCCCCCCCCCCCCCCCC(=O)O)C(=O)O)C(=O)N[C@H](C(=O)N[C@@H](CCC(=O)O)C(=O)N[C@@H](CCC(=O)O)C(=O)N[C@@H](CCC(=O)O)C(=O)N[C@@H](C)C(=O)N[C@@H](CO)C(=O)N1CCC[C@H]1C(=O)N[C@@H](CCC(=O)O)C(=O)N[C@@H](CCC(=O)O)C(=O)N[C@@H](CC(C)C)C(=O)N[C@@H](CCC(N)=O)C(=O)N[C@@H](CCCNC(=N)N)C(=O)N[C@@H](Cc1ccc(O)cc1)C(=O)N[C@@H](Cc1ccc(O)cc1)C(=O)N[C@H](C(=O)N[C@@H](CO)C(=O)N[C@@H](CC(C)C)C(=O)N[C@@H](CCCNC(=N)N)C(=O)N[C@@H](Cc1c[nH]cn1)C(=O)N[C@@H](Cc1ccc(O)cc1)C(=O)N[C@@H](Cc1ccc(O)cc1)C(=O)N[C@@H](CC(N)=O)C(=O)N[C@@H](Cc1c[nH]c2ccccc12)C(=O)N[C@@H](CC(C)C)C(=O)N[C@H](C(=O)N[C@@H](CCCNC(=N)N)C(=O)N[C@@H](CCC(N)=O)C(=O)N[C@@H](CCCNC(=N)N)C(=O)N[C@@H](Cc1ccc(O)cc1)C(N)=O)[C@@H](C)O)C(C)C)C(C)C) [Compound 153] | 14.4 nM
Isovaleryl-APEK([AEEA-AEEA-γGlu-C18 diacid])PEEDASPEELQRYYVSLRHYWNYLTRQRY-NH2 (SMILES CC(C)CC(=O)N[C@@H](C)C(=O)N1CCC[C@H]1C(=O)N[C@@H](CCC(=O)O)C(=O)N[C@@H](CCCCNC(=O)COCCOCCNC(=O)COCCOCCNC(=O)CC[C@H](NC(=O)CCCCCCCCCCCCCCCCC(=O)O)C(=O)O)C(=O)N1CCC[C@H]1C(=O)N[C@@H](CCC(=O)O)C(=O)N[C@@H](CCC(=O)O)C(=O)N[C@@H](CC(=O)O)C(=O)N[C@@H](C)C(=O)N[C@@H](CO)C(=O)N1CCC[C@H]1C(=O)N[C@@H](CCC(=O)O)C(=O)N[C@@H](CCC(=O)O)C(=O)N[C@@H](CC(C)C)C(=O)N[C@@H](CCC(N)=O)C(=O)N[C@@H](CCCNC(=N)N)C(=O)N[C@@H](Cc1ccc(O)cc1)C(=O)N[C@@H](Cc1ccc(O)cc1)C(=O)N[C@H](C(=O)N[C@@H](CO)C(=O)N[C@@H](CC(C)C)C(=O)N[C@@H](CCCNC(=N)N)C(=O)N[C@@H](Cc1c[nH]cn1)C(=O)N[C@@H](Cc1ccc(O)cc1)C(=O)N[C@@H](Cc1c[nH]c2ccccc12)C(=O)N[C@@H](CC(N)=O)C(=O)N[C@@H](Cc1ccc(O)cc1)C(=O)N[C@@H](CC(C)C)C(=O)N[C@H](C(=O)N[C@@H](CCCNC(=N)N)C(=O)N[C@@H](CCC(N)=O)C(=O)N[C@@H](CCCNC(=N)N)C(=O)N[C@@H](Cc1ccc(O)cc1)C(N)=O)[C@@H](C)O)C(C)C) [Compound 158] | 4.43 nM

Stronger by Ki, values ahead:

Ki | Binder
2.05 nM | Isovaleryl-APEK([AEEA-AEEA-γGlu-C18 diacid])PEEDASPEETQRYYVSLRHYYNWLTRQRY-NH2 (SMILES CC(C)CC(=O)N[C@@H](C)C(=O)N1CCC[C@H]1C(=O)N[C@@H](CCC(=O)O)C(=O)N[C@@H](CCCCNC(=O)COCCOCCNC(=O)COCCOCCNC(=O)CC[C@H](NC(=O)CCCCCCCCCCCCCCCCC(=O)O)C(=O)O)C(=O)N1CCC[C@H]1C(=O)N[C@@H](CCC(=O)O)C(=O)N[C@@H](CCC(=O)O)C(=O)N[C@@H](CC(=O)O)C(=O)N[C@@H](C)C(=O)N[C@@H](CO)C(=O)N1CCC[C@H]1C(=O)N[C@@H](CCC(=O)O)C(=O)N[C@@H](CCC(=O)O)C(=O)N[C@H](C(=O)N[C@@H](CCC(N)=O)C(=O)N[C@@H](CCCNC(=N)N)C(=O)N[C@@H](Cc1ccc(O)cc1)C(=O)N[C@@H](Cc1ccc(O)cc1)C(=O)N[C@H](C(=O)N[C@@H](CO)C(=O)N[C@@H](CC(C)C)C(=O)N[C@@H](CCCNC(=N)N)C(=O)N[C@@H](Cc1c[nH]cn1)C(=O)N[C@@H](Cc1ccc(O)cc1)C(=O)N[C@@H](Cc1ccc(O)cc1)C(=O)N[C@@H](CC(N)=O)C(=O)N[C@@H](Cc1c[nH]c2ccccc12)C(=O)N[C@@H](CC(C)C)C(=O)N[C@H](C(=O)N[C@@H](CCCNC(=N)N)C(=O)N[C@@H](CCC(N)=O)C(=O)N[C@@H](CCCNC(=N)N)C(=O)N[C@@H](Cc1ccc(O)cc1)C(N)=O)[C@@H](C)O)C(C)C)[C@@H](C)O) [Compound 155]
2.02 nM | Isovaleryl-APEK([AEEA-AEEA-γGlu-C18 diacid])PEEDAEPEELQKYYVSLRHYYNWLTRQRY-NH2 (SMILES CC(C)CC(=O)N[C@@H](C)C(=O)N1CCC[C@H]1C(=O)N[C@@H](CCC(=O)O)C(=O)N[C@@H](CCCCNC(=O)COCCOCCNC(=O)COCCOCCNC(=O)CC[C@H](NC(=O)CCCCCCCCCCCCCCCCC(=O)O)C(=O)O)C(=O)N1CCC[C@H]1C(=O)N[C@@H](CCC(=O)O)C(=O)N[C@@H](CCC(=O)O)C(=O)N[C@@H](CC(=O)O)C(=O)N[C@@H](C)C(=O)N[C@@H](CCC(=O)O)C(=O)N1CCC[C@H]1C(=O)N[C@@H](CCC(=O)O)C(=O)N[C@@H](CCC(=O)O)C(=O)N[C@@H](CC(C)C)C(=O)N[C@@H](CCC(N)=O)C(=O)N[C@@H](CCCCN)C(=O)N[C@@H](Cc1ccc(O)cc1)C(=O)N[C@@H](Cc1ccc(O)cc1)C(=O)N[C@H](C(=O)N[C@@H](CO)C(=O)N[C@@H](CC(C)C)C(=O)N[C@@H](CCCNC(=N)N)C(=O)N[C@@H](Cc1c[nH]cn1)C(=O)N[C@@H](Cc1ccc(O)cc1)C(=O)N[C@@H](Cc1ccc(O)cc1)C(=O)N[C@@H](CC(N)=O)C(=O)N[C@@H](Cc1c[nH]c2ccccc12)C(=O)N[C@@H](CC(C)C)C(=O)N[C@H](C(=O)N[C@@H](CCCNC(=N)N)C(=O)N[C@@H](CCC(N)=O)C(=O)N[C@@H](CCCNC(=N)N)C(=O)N[C@@H](Cc1ccc(O)cc1)C(N)=O)[C@@H](C)O)C(C)C) [Compound 150]
1.43 nM | Isovaleryl-APEK([AEEA-AEEA-γGlu-C18 diacid])PEAEASPEELQRYYVSLRHYYNWLTRQRY-NH2 (SMILES CC(C)CC(=O)N[C@@H](C)C(=O)N1CCC[C@H]1C(=O)N[C@@H](CCC(=O)O)C(=O)N[C@@H](CCCCNC(=O)COCCOCCNC(=O)COCCOCCNC(=O)CC[C@H](NC(=O)CCCCCCCCCCCCCCCCC(=O)O)C(=O)O)C(=O)N1CCC[C@H]1C(=O)N[C@@H](CCC(=O)O)C(=O)N[C@@H](C)C(=O)N[C@@H](CCC(=O)O)C(=O)N[C@@H](C)C(=O)N[C@@H](CO)C(=O)N1CCC[C@H]1C(=O)N[C@@H](CCC(=O)O)C(=O)N[C@@H](CCC(=O)O)C(=O)N[C@@H](CC(C)C)C(=O)N[C@@H](CCC(N)=O)C(=O)N[C@@H](CCCNC(=N)N)C(=O)N[C@@H](Cc1ccc(O)cc1)C(=O)N[C@@H](Cc1ccc(O)cc1)C(=O)N[C@H](C(=O)N[C@@H](CO)C(=O)N[C@@H](CC(C)C)C(=O)N[C@@H](CCCNC(=N)N)C(=O)N[C@@H](Cc1c[nH]cn1)C(=O)N[C@@H](Cc1ccc(O)cc1)C(=O)N[C@@H](Cc1ccc(O)cc1)C(=O)N[C@@H](CC(N)=O)C(=O)N[C@@H](Cc1c[nH]c2ccccc12)C(=O)N[C@@H](CC(C)C)C(=O)N[C@H](C(=O)N[C@@H](CCCNC(=N)N)C(=O)N[C@@H](CCC(N)=O)C(=O)N[C@@H](CCCNC(=N)N)C(=O)N[C@@H](Cc1ccc(O)cc1)C(N)=O)[C@@H](C)O)C(C)C) [Compound 151]
